Data set [1] deals with FUS-RBD (RGG1-RRM-RGG2-ZnF-RGG3) (UniProt P35637 242-526). In words: fluorescence anisotropy; 12 mM arginine; FA: 10 mM HEPES pH 7.2, 50 mM NaCl, 12 mM arginine (further 1 mM component truncated in the text); temperature not stated; KD from two independent measurements. Conditions: protein: recombinant; tags: N-terminal GB1-6xHis; label: 5'-fluorescein; single strand.
Data set [2] deals with T1, TIA-1 RRM2,3 (UniProt P31483-2 93-274).
T1 sequence: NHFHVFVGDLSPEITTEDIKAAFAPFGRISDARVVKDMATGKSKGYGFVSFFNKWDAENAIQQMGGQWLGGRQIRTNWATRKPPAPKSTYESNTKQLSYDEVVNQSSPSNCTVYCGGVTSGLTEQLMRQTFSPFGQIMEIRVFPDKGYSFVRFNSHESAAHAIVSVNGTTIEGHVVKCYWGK
The description is as above. Particulars: protein: recombinant; tags: 6xHis removed with thrombin; label: 5'-fluorescein; single strand.

By Kd is commonly meant the constant that tells how readily two partners part at equilibrium.

Sequence of FUS-RBD (RGG1-RRM-RGG2-ZnF-RGG3) (P35637 242-526): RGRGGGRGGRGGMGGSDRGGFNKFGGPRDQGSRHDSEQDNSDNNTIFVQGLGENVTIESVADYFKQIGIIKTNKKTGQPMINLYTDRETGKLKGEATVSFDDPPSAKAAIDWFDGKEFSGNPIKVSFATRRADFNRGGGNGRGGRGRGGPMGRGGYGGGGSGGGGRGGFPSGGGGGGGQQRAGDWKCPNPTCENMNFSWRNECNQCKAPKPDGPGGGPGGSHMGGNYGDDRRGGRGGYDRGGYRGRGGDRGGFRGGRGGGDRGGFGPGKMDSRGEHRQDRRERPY

Turning to TTTTTACTCC (ssDNA) [TC1], the figures for the Kd in data set [1] and in data set [2] were 30 nM and 2 nM, respectively.

The values are drawn from publication PMC9329571, “Regulation of TIA-1 Condensates: Zn2+ and RGG Motifs Promote Nucleic Acid Driven LLPS and Inhibit Irreversible Aggregation”.
